Data: article PMC12098869, “An mRNA-display derived cyclic peptide scaffold reveals the substrate binding interactions of an N-terminal cysteine oxidase” (Nature Communications, 2025)

B1: RGS5_(2-15), synthetic peptide corresponding to the methionine excised N-terminus of RGS5, residues 2 to 15 [human] / 2-aminoethanethiol dioxygenase (ADO), full-length human, N-terminally His-tagged and biotinylated (pQE80L-Navi-ADO) … (parent complex)
chain 1: CKGLAALPHSCLER
chain 2: MPRDNMASLIQRIARQACLTFRGSGGGRGASDRDAASGPEAPMQPGFPENLSKLKSLLTQLRAEDLNIAPRKATLQPLPPNLPPVTYMHIYETDGFSLGVFLLKSGTSIPLHDHPGMHGMLKVLYGTVRISCMDKLDAGGGQRPRALPPEQQFEPPLQPREREAVRPGVLRSRAEYTEASGPCILTPHRDNLHQIDAVEGPAAFLDILAPPYDPDDGRDCHYYRVLEPVRPKEASSSACDLPREVWLLETPQADDFWCEGEPYPGPKVFP

Variants of: B1
Test: SPR; parent: 1; read off a plot

Row | Variant | ratio to parent
1 | chain 2 F101A | ~74
2 | chain 2 Y87A | ~9
